This note sets out measurements from paper PMC5551644.

Where two headings read alike, the source gives them in different places.

Assay [1] has as its target Transforming growth factor β2 (TGF-β2), recombinant human (human) (UniProt P61812). Nature of the assay: SPR. In general terms: SPR reads the build-up and loss of mass on a sensor chip optically.
For assay [2], the target named is TGF-β2TM, variant of TGF-β2 bearing K25R, I92V, and K94R substitutions (human). Nature of the assay: SPR.
Assay [3] concerns the target Transforming growth factor β2 (TGF-β2), recombinant human (human) (UniProt P61812). In words: SPR. The source holds these as a separate data set.
Assay [4] addresses TGF-β2TM/TβRII binary complex (UniProt P37173). In words: SEC-MALS. Background: SEC sorts molecules by how far they enter the pores of the column.
Assay [5] has the same target. In words: SEC.
Assay [6] shares this target. In words: ITC. On the technique in general: Isothermal titration calorimetry measures the heat released or taken up as one component is titrated into another.
Assay [7] deals with TGF-β2TM, variant of TGF-β2 bearing K25R, I92V, and K94R substitutions (human). In words: SPR. The source holds these as a separate data set.
Assay [8] addresses Transforming growth factor β2 (TGF-β2), recombinant human (human) (UniProt P61812). In words: ITC.

In the case of “C-terminal portion of the betaglycan zona pellucida domain (BG_(ZP-C)) (from UniProt P26342 589-761) (domain or fragment)”, the Kd (as a rule, the free concentration of one partner at which half of the binding sites on the other are occupied at equilibrium, for simple one-to-one binding) in assay [1] came to 450 nM; in assay [2], 325 nM. In addition, the apparent KD with 2 μM TβRII in assay [3] is 600 nM.
“betaglycan orphan domain (BGO), produced in E. coli (from UniProt P26342 24-384) (domain or fragment)” registered a Kd in assay [2] of 98 nM. The stoichiometry N (BGO per TGF-β2TM homodimer) in assay [4] and in assay [5] was 1 throughout.
In the case of “betaglycan orphan domain (BGO), produced in HEK-293 expi cells (from UniProt P26342 24-383) (domain or fragment)”, in assay [6], the Kd is 82 nM; the dH was -38.8 kJ mol^–1; the stoichiometry N – broadly, the number of molecules, sites or subunits per partner or assembly – was found to be 1.07 sites.
In the case of “betaglycan zona pellucida domain (BGZP) (from UniProt P26342 450-761) (domain or fragment)”, the Kd in assay [7] worked out at 290 nM; in assay [1], 450 nM; in assay [2] it was 287 nM. The apparent KD with 4 μM TβRII in assay [3] was 600 nM.
Turning to “full-length betaglycan extracellular domain (BG_(O-ZP)) (from UniProt P26342 24-761) (domain or fragment)”, in assay [8], the Kd turned out to be 109 nM, the dH was -52.6 kJ mol^–1 and the stoichiometry N turned out to be 1.04 sites. In assay [2], the Kd was 5.5 nM. Moreover, the stoichiometry N (BG (O-ZP) per TGF-β2TM homodimer) in assay [4] stood at 1. For the same substance, in assay [5], the stoichiometry N (BG (O-ZP) per TGF-β2TM homodimer) came out at 1.
